Assay results: patent EP4737482A1 (Atheon Bio, Inc., dated 2026)
Substitutions are numbered along the chain they refer to.

T1: human MYCT1 (hMYCT1) (human, UniProt Q8N699 1-235, limits assumed)
T1 construct: also called MYC Target 1
T1 sequence: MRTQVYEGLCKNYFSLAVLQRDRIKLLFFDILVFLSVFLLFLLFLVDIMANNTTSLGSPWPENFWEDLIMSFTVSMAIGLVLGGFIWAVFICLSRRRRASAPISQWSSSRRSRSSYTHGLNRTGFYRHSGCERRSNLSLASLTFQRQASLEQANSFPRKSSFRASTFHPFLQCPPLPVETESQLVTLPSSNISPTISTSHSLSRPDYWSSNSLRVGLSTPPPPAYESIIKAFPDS

B1: 2B4-p1-uIgG1K (antibody, V domains shown)
VH: EVQLQQSGPELVKPGASVKMSCKASGYTFTDYNMHWVRQSHGKGLEWIGYINPNQGGSSYNRKFKGKATLTVNKSSRSASMELRSLTSEDSAVYYCATRFDVWGTGTTVTVSS
VL: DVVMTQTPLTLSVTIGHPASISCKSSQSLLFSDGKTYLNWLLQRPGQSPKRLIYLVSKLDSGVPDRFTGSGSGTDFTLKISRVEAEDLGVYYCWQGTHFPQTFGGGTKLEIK
B2: 2B4-p3-uIgG1K (antibody, V domains shown)
VH: B1 VH with Q55N, G56A
VL: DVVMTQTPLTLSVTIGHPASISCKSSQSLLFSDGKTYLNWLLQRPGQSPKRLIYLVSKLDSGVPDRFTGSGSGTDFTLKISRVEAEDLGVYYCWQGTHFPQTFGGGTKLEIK
B3: 2B4-p6-uIgG1K (antibody, V domains shown)
VH: B1 VH with Q55N
VL: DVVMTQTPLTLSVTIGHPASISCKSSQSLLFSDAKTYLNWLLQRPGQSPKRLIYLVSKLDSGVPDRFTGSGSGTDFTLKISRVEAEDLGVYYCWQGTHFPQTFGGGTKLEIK
B4: 2B4-p4-uIgG1K (antibody, V domains shown)
VH: B1 VH with Q55N
VL: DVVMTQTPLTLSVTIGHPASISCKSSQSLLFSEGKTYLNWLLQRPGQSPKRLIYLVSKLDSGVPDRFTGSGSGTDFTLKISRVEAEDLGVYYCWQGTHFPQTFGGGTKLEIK
B5: 2B4-p2-uIgG1K (antibody, V domains shown)
VH: B1 VH with Q55S
VL: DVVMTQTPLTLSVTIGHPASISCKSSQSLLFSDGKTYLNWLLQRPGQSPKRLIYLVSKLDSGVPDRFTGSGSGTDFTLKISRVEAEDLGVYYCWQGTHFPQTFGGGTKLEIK
B6: 2B4-z14-uIgG1K (antibody, V domains shown)
VH: B1 VH with Q55N
VL: DVVMTQSPLSLPVTLGQPASISCKSSQSLLFSDGKTYLNWLQQRPGQSPRRLIYLVSKLDSGVPDRFSGSGSGTDFTLKISRVEAEDVGVYYCWQGTHFPQTFGGGTKVEIK
B7: 2B4-z2-uIgG1K (antibody, V domains shown)
VH: QVQLVQSGAEVKKPGASVKVSCKASGYTFTDYNMHWVRQAPGQGLEWMGYINPNNGGSSYNRKFKGRVTMTTDTSTSTAYMELRSLRSDDTAVYYCATRFDVWGQGTTVTVSS
VL: B6 VL
B8: 2B4-z15-uIgG1K (antibody, V domains shown)
VH: B7 VH with V20M, M48I, M70L, T72V, T74K, S77R
VL: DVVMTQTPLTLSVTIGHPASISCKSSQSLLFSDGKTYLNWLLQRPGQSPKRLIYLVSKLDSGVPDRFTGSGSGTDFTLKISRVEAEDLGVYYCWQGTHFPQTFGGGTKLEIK
B9: 2B4-z11-uIgG1K (antibody, V domains shown)
VH: B7 VH with M70L, T72V, T74K, S77R
VL: B6 VL
B10: 2B4-z7-uIgG1K (antibody, V domains shown)
VH: B7 VH with V20M
VL: B6 VL
B11: 2B4-z8-uIgG1K (antibody, V domains shown)
VH: B7 VH with M48I
VL: B6 VL
B12: 2B4-z4-uIgG1K (antibody, V domains shown)
VH: B7 VH with T72V
VL: B6 VL
B13: 2B4-z12-uIgG1K (antibody, V domains shown)
VH: B7 VH with V20M, M70L, T72V, T74K, S77R
VL: B6 VL
B14: 2B4-z10-uIgG1K (antibody, V domains shown)
VH: B7 VH with T72V, T74K, S77R
VL: B6 VL
B15: 2B4-z3-uIgG1K (antibody, V domains shown)
VH: B7 VH with M70L
VL: B6 VL
B16: 2B4-z6-uIgG1K (antibody, V domains shown)
VH: B7 VH with S77R
VL: B6 VL
B17: 2B4-z13-uIgG1K (antibody, V domains shown)
VH: B7 VH with V20M, M48I, M70L, T72V, T74K, S77R
VL: B6 VL
B18: 2B4-z5-uIgG1K (antibody, V domains shown)
VH: B7 VH with T74K
VL: B6 VL
B19: 11B6-p1-uIgG1K (antibody, V domains shown)
VH: EVQLVESGGGLVKPGGSLKLSCAASGFTFSDFGIHWVRQAPEKGLEWVGYISSGSRTIHYADTVKGRFTISRDNAKNTLFLQMTNLRSEDTAIYYCARRDWDPEWLAYWGQGTLVTISA
VL: DVVMTQAPLSLPVSLGDQASISCRSSLSLVHSQGHTYLHWYLQKPGQSPKLLIYKVSNRFSGVPDRFSGSGSGTDFTLKIRRVEAEDLGVYFCSQSTHVPFTFGSGTKLEIK
B20: 11B6-z10-uIgG1K (antibody, V domains shown)
VH: B19 VH with K19R, E42G, T78S, F80Y, T84N, N85S, S88A, I93V, I117V, A119S
VL: B19 VL with A7S, S14T, L15P, D17E, Q18P, Q33N, K50Q, R81S, L88V, S105Q
B21: 11B6-z12-uIgG1K (antibody, V domains shown)
VH: B19 VH with K19R, E42G, T78S, F80Y, T84N, N85S, S88A, I117V, A119S
VL: B19 VL with A7S, S14T, L15P, D17E, Q18P, Q33N, L88V, S105Q
B22: 11B6-z9-uIgG1K (antibody, V domains shown)
VH: EVQLVESGGGLVKPGGSLRLSCAASGFTFSDFGIHWVRQAPGKGLEWVSYISSGSRTIHYADTVKGRFTISRDNAKNSLYLQMNSLRAEDTAVYYCARRDWDPEWLAYWGQGTLVTVSS
VL: B19 VL with A7S, S14T, L15P, D17E, Q18P, Q33N, K50Q, R81S, L88V, S105Q
B23: 11B6-z4-uIgG1K (antibody, V domains shown)
VH: B22 VH with V93I
VL: DIVMTQSPLSLPVTPGEPASISCRSSLSLVHSNGHTYLHWYLQKPGQSPQLLIYKVSNRFSGVPDRFSGSGSGTDFTLKISRVEAEDVGVYYCSQSTHVPFTFGQGTKLEIK
B24: 11B6-z3-uIgG1K (antibody, V domains shown)
VH: B22 VH with Y80F
VL: B23 VL
B25: 11B6-z1-uIgG1K (antibody, V domains shown)
VH: B22 VH with S49G
VL: B23 VL
B26: 11B6-z2-uIgG1K (antibody, V domains shown)
VH: B22 VH with S78T
VL: B23 VL
B27: 11B6-z11-uIgG1K (antibody, V domains shown)
VH: B22 VH with S49G, V93I
VL: B23 VL with I2V, Y92F
B28: 11B6-z13-uIgG1K (antibody, V domains shown)
VH: B22 VH with S49G, S78T, Y80F, V93I
VL: B23 VL with I2V, Q50K, S81R, Y92F
B29: 11B6-z15-uIgG1K (antibody, V domains shown)
VH: B22 VH with S49G, S78T, Y80F, V93I
VL: B19 VL with Q33N
B30: 11B6-z14-uIgG1K (antibody, V domains shown)
VH: B19 VH
VL: B23 VL with I2V, Q50K, S81R, Y92F
B31: 11B6-p3-uIgG1K (antibody, V domains shown)
VH: B19 VH
VL: B19 VL with Q33N, G34A
B32: 11B6-p2-uIgG1K (antibody, V domains shown)
VH: B19 VH
VL: B19 VL with Q33S
B33: 11B6-z0-uIgG1K (antibody, V domains shown)
VH: B22 VH
VL: B23 VL
B34: 11B6-z7-uIgG1K (antibody, V domains shown)
VH: B22 VH
VL: B23 VL with S81R
B35: 11B6-z8-uIgG1K (antibody, V domains shown)
VH: B22 VH
VL: B23 VL with Y92F
B36: 11B6-z6-uIgG1K (antibody, V domains shown)
VH: B22 VH
VL: B23 VL with Q50K
B37: 11B6-z5-uIgG1K (antibody, V domains shown)
VH: B22 VH
VL: B23 VL with I2V
B38: 11B6-z12-p3-uIgG1K (antibody, V domains shown)
VH: B22 VH with S49G, V93I
VL: B23 VL with I2V, G34A, Q50K, S81R, Y92F
B39: 11B6-z16-p3-uIgG1K (antibody, V domains shown)
VH: B22 VH with S49G
VL: B23 VL with G34A, Q50K, Y92F
notes: also called hzATN001; ATN001
B40: 11B6-z10-p3-uIgG1K (antibody, V domains shown)
VH: B22 VH with S49G
VL: B23 VL with I2V, G34A, Y92F

The binders below were run against T1, human MYCT1 (hMYCT1) (assay: SPR (Biacore 8K), antibody captured via anti-human Fc IgG, MYCT1 as analyte, steady-state affinity model).

Kd [nM]	Binder
264	B1
270	B2
288	B3
> 500	B4
224	B5

Biological target: T1, human MYCT1 (hMYCT1)
Test: as above
Remark: another data set of the same source

Kd [nM]	Binder
203	B6
368	B7
617	B8
449	B9
382	B10
321	B11
354	B12
428	B13
456	B14
332	B15
447	B16
443	B17
351	B18

The binders below were run against T1, human MYCT1 (hMYCT1) (assay: SPR koff ranking, single curve, antibody captured via anti-human Fc IgG, 10 nM MYCT1 as analyte, 1:1 binding model).

koff [s⁻¹]	Binder
0.00933	B19
0.0102	B20
0.00838	B21
0.0311	B22
0.0476	B23
0.0659	B24
0.0169	B25
0.056	B26
0.0102	B27
0.00838	B28
0.00906	B29
0.0052	B30
0.00547	B31
0.00691	B32
0.0624	B33
0.0473	B34
0.0324	B35
0.0377	B36
0.0521	B37

The binders below were run against T1, human MYCT1 (hMYCT1) (assay: SPR full kinetics, multicycle, antibody captured via anti-human Fc IgG, MYCT1 0.625-10 nM as analyte, 1:1 binding model).

Kd [nM]	koff [s⁻¹]	kon [M⁻¹ s⁻¹]	Binder
2.35	0.00786	3.35e+06	B38
2.53	0.00841	3.32e+06	B39
3.34	0.0122	3.65e+06	B40
